This note sets out measurements from patent US20070015194A1 (RAMOT AT TEL AVIV UNIVERSITY, published 2007).

The assay addresses T1, CC2D1A protein (coiled-coil and C2 domain containing 1A), wild type, human, GenBank Accession No. NP-060191 (human, UniProt Q6P1N0 1-951).
T1 construct: Endogenous protein in lysates of lymphoblast or lymphoblastoid cells from unaffected individuals; It is the long isoform of 951 amino acids, seen as a band of about 104 kDa; also called FLJ20241; wild type protein
T1 sequence: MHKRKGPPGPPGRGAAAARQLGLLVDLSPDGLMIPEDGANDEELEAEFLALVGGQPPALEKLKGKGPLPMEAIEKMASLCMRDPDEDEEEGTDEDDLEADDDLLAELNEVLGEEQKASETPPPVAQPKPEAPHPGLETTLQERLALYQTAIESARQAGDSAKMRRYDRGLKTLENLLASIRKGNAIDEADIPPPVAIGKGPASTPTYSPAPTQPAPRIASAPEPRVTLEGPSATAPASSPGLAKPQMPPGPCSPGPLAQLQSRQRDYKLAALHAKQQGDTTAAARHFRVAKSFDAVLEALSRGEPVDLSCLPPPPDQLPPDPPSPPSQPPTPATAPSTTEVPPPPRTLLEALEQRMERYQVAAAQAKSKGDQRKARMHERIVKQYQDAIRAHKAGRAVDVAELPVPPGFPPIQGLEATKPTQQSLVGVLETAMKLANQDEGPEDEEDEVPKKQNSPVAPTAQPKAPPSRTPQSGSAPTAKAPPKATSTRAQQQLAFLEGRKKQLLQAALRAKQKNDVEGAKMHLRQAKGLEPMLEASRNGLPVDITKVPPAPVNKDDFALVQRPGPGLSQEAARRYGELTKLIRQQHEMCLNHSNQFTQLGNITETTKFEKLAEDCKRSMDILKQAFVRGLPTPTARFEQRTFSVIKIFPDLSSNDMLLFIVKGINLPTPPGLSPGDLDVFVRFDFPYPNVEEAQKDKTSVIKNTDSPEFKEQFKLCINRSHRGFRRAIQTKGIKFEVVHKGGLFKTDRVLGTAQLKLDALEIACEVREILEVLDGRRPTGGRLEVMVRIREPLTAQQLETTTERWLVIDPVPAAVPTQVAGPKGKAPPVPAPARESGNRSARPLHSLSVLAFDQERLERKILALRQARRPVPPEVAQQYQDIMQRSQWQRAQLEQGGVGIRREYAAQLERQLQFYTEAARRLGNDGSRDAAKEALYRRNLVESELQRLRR
As to the kind of experiment: co-immunoprecipitation of endogenous proteins from control lymphoblastoid cell extracts with anti-CC2D1A antibody, Western blot with anti-p50 (data not shown). On the procedure: Western blot—Lymphoblast cell proteins were subjected to Western blot analysis using the CC2D1A antibody. Briefly, cells were washed twice with PBS and lysed at 4° C. with lysis buffer (0.6% NP40 and protease inhibitors). After 15 minutes of incubation, cell lysates were centrifuged for 5 minutes at 14,000 rpm and supernatants were collected. Protein concentrations were determined using the BCA Protein Assay Reagent Kit (PIERCE). Whole-cell proteins (approximately 20 μg) were subjected to 7.5% SDS-PAGE and transferred to nitrocellulose membranes. The membranes were blocked for 30 minutes at room temperature with 5% skim milk in Tris-buffer (10 mM Tris, 150 mM NaCl, and 0.1% Tween-20) and subsequently incubated with anti-CC2D1A rabbit polyclonal antibody (BL695, Bethyl laboratories) diluted 1:20000, rabbit polyclonal anti-emerin (sc-15378, Santa Cruz Biotechnology) diluted 1:5000, mouse monoclonal antibody anti-NF-κB p50 (sc-8414, Santa Cruz Biotechnology) diluted 1:1000 or mouse monoclonal antibody p65 (sc-8008, Santa Cruz Biotechnology) diluted 1:5000. After washing and subsequent incubation for 1 hour with horseradish peroxidase coupled to anti-rabbit IgG or mouse IgG respectively (Jackson ImmunoResearch Laboratories, West Grove, Pa.), immunoreactive proteins were visualized by an ECL (enhanced chemiluminescence super signal) Detection Kit (PIERCE). […]
In general terms: In western blotting, separated proteins are transferred to a membrane and probed.

B1: p50 subunit of NF-κB (other, human, UniProt P19838 1-433, looked up)
chain: MAEDDPYLGRPEQMFHLDPSLTHTIFNPEVFQPQMALPTDGPYLQILEQPKQRGFRFRYVCEGPSHGGLPGASSEKNKKSYPQVKICNYVGPAKVIVQLVTNGKNIHLHAHSLVGKHCEDGICTVTAGPKDMVVGFANLGILHVTKKKVFETLEARMTEACIRGYNPGLLVHPDLAYLQAEGGGDRQLGDREKELIRQAALQQTKEMDLSVVRLMFTAFLPDSTGSFTRRLEPVVSDAIYDSKAPNASNLKIVRMDRTAGCVTGGEEIYLLCDKVQKDDIQIRFYEEEENGGVWEGFGDFSPTDVHRQFAIVFKTPKYKDINITKPASVFVQLRRKSDLETSEPKPFLYYPEIKDKEEVQRKRQKLMPNFSDSFGGGSGAGAGGGGMFGSGGGGGGTGSTGPGYSFPHYGFPTYGGITFHPGTTKSNAGMKHG
notes: Endogenous protein; also called NF-κB p50
As for B1, the binding result is recorded as “no binding”.
